Measured values reported in publication PMC11053110 (Nature Communications, 2024).

Target: T1, GST-tagged IRF3 (human, UniProt Q14653 1-427)
T1 construct: also called GST-IRF3
T1 sequence (looked up): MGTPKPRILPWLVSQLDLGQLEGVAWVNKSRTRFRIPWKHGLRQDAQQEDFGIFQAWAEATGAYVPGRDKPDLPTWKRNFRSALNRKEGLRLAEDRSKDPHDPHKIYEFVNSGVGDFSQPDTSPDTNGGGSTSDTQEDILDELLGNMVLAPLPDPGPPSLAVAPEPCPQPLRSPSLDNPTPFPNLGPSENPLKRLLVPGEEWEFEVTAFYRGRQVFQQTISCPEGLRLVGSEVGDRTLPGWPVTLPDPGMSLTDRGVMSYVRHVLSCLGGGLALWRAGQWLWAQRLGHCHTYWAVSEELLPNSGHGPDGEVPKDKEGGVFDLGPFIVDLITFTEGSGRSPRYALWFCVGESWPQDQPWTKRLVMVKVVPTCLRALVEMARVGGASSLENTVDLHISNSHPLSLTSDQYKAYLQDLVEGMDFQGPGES
Assay: pull-down
Conditions: both partners purified

B1: His-tagged EGLN1 (enzyme, human, UniProt Q9GZT9 1-426, looked up)
chain: MANDSGGPGGPSPSERDRQYCELCGKMENLLRCSRCRSSFYCCKEHQRQDWKKHKLVCQGSEGALGHGVGPHQHSGPAPPAAVPPPRAGAREPRKAAARRDNASGDAAKGKVKAKPPADPAAAASPCRAAAGGQGSAVAAEAEPGKEEPPARSSLFQEKANLYPPSNTPGDALSPGGGLRPNGQTKPLPALKLALEYIVPCMNKHGICVVDDFLGKETGQQIGDEVRALHDTGKFTDGQLVSQKSDSSKDIRGDKITWIEGKEPGCETIGLLMSSMDDLIRHCNGKLGSYKINGRTKAMVACYPGNGTGYVRHVDNPNGDGRCVTCIYYLNKDWDAKVSGGILRIFPEGKAQFADIEPKFDRLLFFWSDRRNPHEVQPAYATRYAITVWYFDADERARAKVKYLTGEKGVRVELNKPSDSVGKDVF
notes: also called His-EGLN1
B1: binds.
